These are literature values, as cited in publication PMC6679586.

The data set has as its target Activin A mature domain mature domain (Homo sapiens) (UniProt P08476).

Usually Kd stands for the equilibrium constant for the complex coming apart. Regarding “Activin A prodomain prodomain (from UniProt P08476)”, the equilibrium dissociation constant (Kd) was 5 nM.
